Measurements as given in doi:10.1101/2024.06.01.596940 (bioRxiv, 2024).

T1: mouse GPR182 (untagged), stably expressed on HEK293T cells (mouse, UniProt P43142 1-398)
T1 sequence: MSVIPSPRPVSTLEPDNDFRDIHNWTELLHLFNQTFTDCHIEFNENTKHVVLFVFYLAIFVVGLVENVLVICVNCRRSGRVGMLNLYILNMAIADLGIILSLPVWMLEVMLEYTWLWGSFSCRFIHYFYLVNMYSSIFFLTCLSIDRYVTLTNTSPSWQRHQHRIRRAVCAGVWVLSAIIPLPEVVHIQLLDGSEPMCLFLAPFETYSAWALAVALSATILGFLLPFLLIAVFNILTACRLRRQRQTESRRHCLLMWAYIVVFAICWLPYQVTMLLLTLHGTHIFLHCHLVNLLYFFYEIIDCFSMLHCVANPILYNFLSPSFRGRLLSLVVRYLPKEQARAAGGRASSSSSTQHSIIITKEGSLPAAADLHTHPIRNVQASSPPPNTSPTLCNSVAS

B1: viral macrophage inflammatory protein II (ligand)
chain: GDTLGASWHRPDKCCLGYQKRPLPQVLLSSWYPTSQLCSKPGVIFLTKRGRQVCADKSKDWVKKLMQQLPVTAR
B2: mouse GPR15L (ligand)
chain: RRHPAKSLKLRRCCHLSPRSKLTTWKGNHTRPCRLCRNKLPVKSWVVPGALPQI
B3: mouse CXCL17 (ligand)
chain: SPNPGVARSHGDQHLAPRRWLLEGGQECECKDWFLQAPKRKATAVLGPPRKQCPCDHVKGREKKNRHQKHHRKSQRPSRACQQFLKRCHLASFALPL
B4: human GPR15L (ligand)
chain: KRRPAKAWSGRRTRLCCHRVPSPNSTNLKGHHVRLCKPCKLEPEPRLWVVPGALPQV
B5: human CXCL17 (ligand)
chain: SSLNPGVARGHRDRGQASRRWLQEGGQECECKDWFLRAPRRKFMTVSGLPKKQCPCDHFKGNVKKTRHQRHHRKPNKHSRACQQFLKQCQLRSFALPL
B6: human CXCL13 (ligand)
chain: VLEVYYTSLRCRCVQESSVFIPRRFIDRIQILPRGNGCPRKEIIVWKKNKSIVCVDPQAEWIQRMMEVLRKRSSSTLPVPVFKRKIP
B7: human CCL19 (ligand)
chain: GTNDAEDCCLSVTQKPIPGYIVRNFHYLLIKDGCRVPAVVFTTLRGRQLCAPPDQPWVERIIQRLQRTSAKMKRRSS
B8: human CCL25 (ligand)
chain: QGVFEDCCLAYHYPIGWAVLRRAWTYRIQEVSGSCNLPAAIFYLPKRHRKVCGNPKSREVQRAMKLLDARNKVFAKLHHNTQTFQAGPHAVKKLSSGNSKLSSSKFSNPISSSKRNVSLLISANSGL

target: T1, mouse GPR182 (untagged), stably …; experiment: flow cytometry on cells

Row | Binder | pIC50
1 | B1 | 6.13
2 | B2 | 7.06
3 | B3 | 5.61

target: human GPR182 (untagged), stably expressed on HEK293T cells (human, UniProt O15218 1-404); experiment: flow cytometry on cells
Sequence (O15218 whole entry): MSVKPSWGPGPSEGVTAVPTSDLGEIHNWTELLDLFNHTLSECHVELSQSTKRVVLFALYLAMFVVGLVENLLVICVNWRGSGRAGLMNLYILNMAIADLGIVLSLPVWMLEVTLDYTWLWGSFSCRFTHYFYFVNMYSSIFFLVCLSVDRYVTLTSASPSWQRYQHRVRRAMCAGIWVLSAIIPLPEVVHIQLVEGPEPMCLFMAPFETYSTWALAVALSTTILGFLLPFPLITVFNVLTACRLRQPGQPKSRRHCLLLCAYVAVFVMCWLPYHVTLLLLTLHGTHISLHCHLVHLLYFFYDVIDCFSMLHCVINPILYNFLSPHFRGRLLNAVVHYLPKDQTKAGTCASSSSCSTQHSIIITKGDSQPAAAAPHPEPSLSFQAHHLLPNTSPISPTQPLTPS

Row | Binder | pIC50
4 | B1 | 7.87
5 | B4 | 8
6 | B5 | 7.89
7 | B6 | 7.67
8 | B7 | 7.21
9 | B8 | 7.17
